Measurements: the supplement of paper PMC9170038

System: MS2 coat protein
Test: apparent KD of MS2 coat protein; designed switch direction (-1 OFF switch, 1 ON switch): -1; higher = weaker reporter binding
Method in brief: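 An oligonucleotide input, 200 uM small-molecule ligand, or no input was present during titration of SNAP-549-labelled MS2 coat protein, which was doubled from 0.7 or 1.5 nM to 3 µM. Designed RNA switches had been transcribed on Illumina chips by stalled E. coli RNA polymerase. Apparent KD per design is the median over clusters of curves fitted to normalised cluster fluorescence.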

[1] = input ligand: microRNA oligo, concentration not stated
[2] = Eterna round: R95, input ligand: FMN 200 uM
[3] = Eterna round: R95, input ligand: microRNA oligo, concentration not stated
[4] = Eterna round: R95, input ligand: none

| Sequence | apparent KD of MS2 coat protein (input ligand: FMN 200 uM) [nM] | apparent KD of MS2 coat protein (input ligand: none) [nM] | apparent KD of MS2 coat protein [1] [nM] | apparent KD of MS2 coat protein [2] [nM] | apparent KD of MS2 coat protein [3] [nM] | apparent KD of MS2 coat protein [4] [nM] |
| --- | --- | --- | --- | --- | --- | --- |
| ACCUCACAUGAGGAUCACCCAUGUCAGGAUAUCUAAUGUAGUCGCGUUCCCGACGCUAAGAGAAGGGACAUUAA [EX1 #34] (Eterna round: R97, puzzle: Exclusion 1) | 22.6 | 14.1 | – | – | – | – |
| GGAGGACGAGCAGGAUAUUUUCACAUGAGGAUCACCCAUGUGUACUCAGGGUAAUCCUCCGCCGAAAAGAAGGGUUCGGAAUAA [Mat - Exclusion NG 2 - Mod of JL - D81] (Eterna round: R96, puzzle: Exclusion NG 2) | 39.8 | 74.1 | 27.8 | – | – | – |
| GUGAGAUAGUUAGUGGCCGACAUGAGGAUCACCCAUGUGAGGGAAAUGUUGAGGCGAAAGCUUUUUGCUCGUCUUUA [JR_SV3TOV1_Sub037] (puzzle: Sensor v3, turn-off variant 1) | – | – | – | 30 | 139 | 34.8 |
| AGCAUGCUAGGAUAUACGAAACAUUAGGGUUCUUUGUAUGAACAUGAGGAUCACCCAUGUAGAAGGAGCGUGCA [Mat - Exclusion 2 - Mod of Hyphema - D96] (puzzle: Exclusion 2) | – | – | – | – | 82.5 | – |
| UAUAUAUAGUAAGGAUAUGUAAUUUUUUUAUAAACAGAAGGUACUGACAUGAGGAUCACCCAUGUUUUAGUGUGGGCAUGUAGA [JMF's solution 32] (Eterna round: R96, puzzle: Exclusion NG 1) | – | – | 78.3 | – | – | – |
| GAAAAGGUAGGAUAUACGAAAAAAAAGGGUAGUAAAAAAACACAUGAGGAUCACCCAUGUAGAAGGACCAAAAG [salish99_ex2_r3_079] (puzzle: Exclusion 2) | – | – | – | 35.7 | 20.9 | 18.6 |
| CGUAUGUCAGGAUAUCGUGCAUACAACGAAAGUUCUAUGUGCGAGAAGGGACAUGAGGAUCACCCAUGUCUUCG [Omei Ex4 A13] (Eterna round: R97, puzzle: Exclusion 4) | 42.8 | 23.6 | – | – | – | – |
| AUGCGACAUGAGGAUCACCCAUGUGAGGAUAUGCGAAUGCAGACUUCGGUUUGAUAGAGCAGAAGGCGCAGGUA [EX1 #15] (Eterna round: R97, puzzle: Exclusion 1) | 58.5 | 29.4 | – | – | – | – |
| GGGUGACAUGAGGAUCACCCAUGUCAGGAUAUGAUACUAUGUACUUCGGUACAUAGUAUCAGAAGGGACAUCAU [Ex1-3: 14] (Eterna round: R96, puzzle: Exclusion 1) | 112 | 424 | 253 | – | – | – |
| CUCCUACAUGAGGAUCACCCAUGUCAGGAUAUCUCAGUAGCACCUAAAGGUGCUACCCAGAGAAGGGACGUGCA [Enororce] (puzzle: Exclusion 1) | – | – | – | – | 11.1 | – |
| CCGGCUGCUGUGAGGAUAUGCCUGCGCGCCCGCGGGCAGAAGGCACAUGAGGAUCACCCAUGUCCUGCGGUCCC [salish99_bmx4_r4_119] (Eterna round: R97, puzzle: Brourd's mod of Exclusion 4) | 45.2 | 18.2 | – | – | – | – |
| GUGUAGCAAGGAUAUACAUGAGGAUCACCCAUGUGAAUAAGAUAGAAUAAGAUAAAGUGUAGAAGGUGCAGUGU [Excluse me!!! 8 - Jieux - Exclusion 3] (Eterna round: R96, puzzle: Exclusion 3) | 44.9 | 41.6 | 31.5 | – | – | – |
| UAUUAGCAAGCGAGAUCCCACAUGAGGAUCACCCAUGUGCUCGUGCAUCCAGAAUUACUGGGUGCAGCUCGUCUUAU [Winner reversed engineered 12] (Eterna round: R97, puzzle: Sensor, turn-off variant 1) | 14.9 | 14.7 | – | – | – | – |
| AGAGUGCUGCGAGGAUAUACAUGAGGAUCACCCAUGUUUUCCUGUGAGGCAAAGCCUCACAGGAUGUAGAAGGCGCAGUACUCA [Mat - Exclusion NG 2 - Mod of JL - D39] (Eterna round: R96, puzzle: Exclusion NG 2) | 13.9 | 17.7 | 11.1 | – | – | – |
| GGUCUGCGAGGAUAUACAUGAGGAUCACCCAUGUGCGUGAUACUAGUGAGGUCGGUUGGUAGAAGGCGCGGACG [JL-ex3-2.08 salish99 mod] (puzzle: Exclusion 3) | – | – | – | 128 | 245 | 649 |
| UUUUAACAUGAGGAUCACCCAUGUGAGGAUAUCGAAAUUUAUAUUAAUAUUAUUAUUACGAGAAGGCACAUUUU [JMF 42] (puzzle: Exclusion 1) | – | – | – | – | 69.3 | – |
| AGGUCCUUCUGGACACAUGAGGAUCACCCAUGUGCGGUCAGCGAGGAUAUCGGUCUAUAAUGUGACGAGAAGGCGCGGACCGAU [Ex NG3 #60] (Eterna round: R96, puzzle: Exclusion NG 3) | 38.9 | 20.7 | 15.3 | – | – | – |
| AGAGUGCUGCGAGGAUAUACAUGAGGAUCACCCAUGUUUUCCUGUGAGGCUUUGCCUCACAGGAUGUAGAAGGCGCAGUACUCA [Mat - Exclusion NG 2 - Mod of JL - D38] (Eterna round: R96, puzzle: Exclusion NG 2) | 9.32 | 13.1 | 9.65 | – | – | – |
| UAUAUAUAGUAAGGAUAUGUAUUUAUAUUAUAAACAGAAGGUACUGACAUGAGGAUCACCCAUGUUUUAGUGUGGGCAUGUAGA [JMF's solution 15] (Eterna round: R96, puzzle: Exclusion NG 1) | – | – | 66.6 | – | – | – |
| AAAAGGUCAGGAUAUCGACGCGGUUGGGAGGCAGGUCCGCGCGAGAAGGGACAUGAGGAUCACCCAUGUUAAAA [Excls4-IV] (puzzle: Exclusion 4) | – | – | – | 33.5 | 22.8 | 26.4 |
| GCAAGCUUUUGCUCGUCUUACAUGAGGAUCACCCAUGUCGGGCCCGGGCUUCGUGGCCGGGCCCGCCGGGCGCCGGG [-37, -64.6 kcal, A 10%] (Eterna round: R97, puzzle: Sensor, turn-off variant 1) | 56.5 | 70.4 | – | – | – | – |
| AAUGUUGAUGUGAGGAUAUACAUAGUUUGACCGUAGUAGAAGGCACAUGAGGAUCACCCAUGUAGAUGUUUGGU [JR_BME4_Sub004] (puzzle: Brourd's mod of Exclusion 4) | – | – | – | – | 12.5 | – |
| CACCGUUAGCGAGGAUAUCGUACAUGAGGAUCACCCAUGUAAUAAAUGAGAAUUUCGGAUGUAUGCGAGAAGGCGCAAAUCGGC [Ostracism 41 - Jieux - Exclusion NG 2] (Eterna round: R96, puzzle: Exclusion NG 2) | – | – | 45.3 | – | – | – |
| GGCAUGCAAGGAUAUACUUGCAGUGAUAUUCGAUAAAGUCUACUUGAGGAUCACCCAAGUAGAAGGUGCAUGCC [Exclusion 2 (Mod6 JL EX2 4.74 Vienna UCT mod of Mamaed)] (Eterna round: R97, puzzle: Exclusion 2) | 35 | 25.8 | – | – | – | – |
| CUACUGAAGCUUUGCUUUAGUCGUACAUGAGGAUCACCCAUGUAGGAUAUACAUGAGGAUCACCCAUAGAAGGAUAGAGUGAUC [salish99_ExNG3_r04_602] (Eterna round: R96, puzzle: Exclusion NG 3) | 36.1 | 38.6 | 31.2 | – | – | – |
